Measurements: PMC2593743 (Nature structural & molecular biology, 2008)

Columns and labels:
[1] = target: T1, human spastin MIT domain (residues 112-195), purified (human, UniProt Q9UBP0-1 112-195); experiment: SPR
T1 sequence (looked up): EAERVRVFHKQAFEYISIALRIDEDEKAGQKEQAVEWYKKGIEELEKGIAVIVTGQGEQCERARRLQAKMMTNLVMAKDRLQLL

[2] = target: T2, VPS4A MIT domain, recombinant (His6-VPS4 MIT) (UniProt Q9UN37 2-80); experiment: SPR
T2 sequence (looked up): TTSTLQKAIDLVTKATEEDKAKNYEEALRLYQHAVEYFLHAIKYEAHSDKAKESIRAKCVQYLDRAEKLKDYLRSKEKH

Kd [1]: 12 µM
Kd [2]: 33 µM
B1: polyhistidine-tagged CHMP1B-CTR (residues 126-199), wild type (domain or fragment, human, UniProt Q7LBR1 126-199, looked up)
chain: DVQTQQMEDTMSSTTTLTTPQNQVDMLLQEMADEAGLDLNMELPQGQTGSVGTSVASAEQDELSQRLARLRDQV
